# B1: AB-1 full-length IgG1 (antibody, V domains shown)
# VH: EVQLEESGTVLARPGASVKMSCKASGYTFTTYWMHWIKQRPGQGLEWIGAIYPGNSDTQYNQKFKDKAKLTAVKSTSSAYMELSSLTNEDSAVYFCTREGIPQLLRTLDYWGQGTSVTVSS
# VL: DILMTQSPSSLSASLGERVSLTCRASQEISGYLSWLQEKPDGTIKRLIYAASTLDSGVPKRFSGSRSGSDYSLTISSLESEDFADYYCLQYLSYPWTFGGGTKLEIK
# B2: AB-2 full-length IgG1 (antibody, V domains shown)
# VH: EVQLEESGTVLARPGASVKMSCKASGYTFTTYWMHWIKQRPGQGLEWIGAIYPGNGDTNYNQKFKDKAKLTAVKSTSSAYMELSSLTNEDSAVYFCTREGIPQLLRTLDYWGQGTSVTVSS
# VL: DILMTQSPSSLSASLGERVSLTCRASQEISGYLSWLQEKPDGTIKRLIYAASTLDSGVPKRFSGSRSGSDYSLTISSLESEDFADYYCLQYLSYPWTFGGGTKLEIK
# B3: AB-3 full-length IgG1 (antibody, V domains shown)
# VH: EVQLEESGTVLARPGASVKMSCKASGYTFTTYWMHWIKQRPGQGLEWIGAIYPGNGDTNYNQKFKDKAKLTAVKSTSSAYMELSSLTNEDSAVYFCTREGIPQKLRTLDVWGQGTSVTVSS
# VL: DILMTQSPSSLSASLGERVSLTCRASQEISGYLSWLQEKPDGTIKRLIYAASTLDSGVPKRFSGSRSGSDYSLTISSLESEDFADYYCLQYLSYPWTFGGGTKLEIK
# B4: AB-8 full-length IgG1 (antibody, V domains shown)
# VH: EVQLEESGTVLARPGASVKMSCKASGYTFTTYWMHWIKQRPGQGLEWIGAIYPGNSDTIYNQKFKDKAKLTAVKSTSSAYMELSSLTNEDSAVYFCTREGIPQLLRTLDYWGQGTSVTVSS
# VL: DILMTQSPSSLSASLGERVSLTCRASQEISGYLSWLQEKPDGTIKRLIYAASTLDSGVPKRFSGSRSGSDYSLTISSLESEDFADYYCLQYLSYPWTFGGGTKLEIK
# B5: AB-9 full-length IgG1 (antibody, V domains shown)
# VH: EVQLEESGTVLARPGASVKMSCKASGYTFTSYWMHWIKQRPGQGLEWIGAIYPGNSDTNYNQKFKDKAKLTAVTSTSSAYMELSSLTNEDSAVYFCTREGIPQLLRTLDYWGQGTSVTVSS
# VL: DILMTQSPSSLSASLGERVSLTCRASQEISGYLSWLQEKPDGTIKRLIYAASTLDSGVPKRFSGSRSGSDYSLTISSLESEDFADYYCLQYLSYPWTFGGGTKLEIK
# B6: AB-6 full-length IgG1 (antibody, V domains shown)
# VH: EVQLEESGTVLARPGASVKMSCKASGYTFTSYWMHWIKQRPGQGLEWIGAIYPGNSDTNYNQKFKDKAKLTAVKSTSSAYMELSSLTNEDSAVYFCTREGIPQLTRTLDYWGQGTSVTVSS
# VL: DILMTQSPSSLSASLGERVSLTCRASQEISGYLSWLQEKPDGTIKRLIYAASTLDSGVPKRFSGSRSGSDYSLTISSLESEDFADYYCLQYLSYPWTFGGGTKLEIK
# B7: AB-7 full-length IgG1 (antibody, V domains shown)
# VH: EVQLEESGTVLARPGASVKMSCKASGYTFTSYWMHWIKQRPGQGLEWIGAIYPGNSDTNYNQKFKDKAKLTAVKSTSSAYMELSSLTNEDSAVYFCTREGIPQLLRSLDYWGQGTSVTVSS
# VL: DILMTQSPSSLSASLGERVSLTCRASQEISGYLSWLQEKPDGTIKRLIYAASTLDSGVPKRFSGSRSGSDYSLTISSLESEDFADYYCLQYLSYPWTFGGGTKLEIK
# B8: AB-5 full-length IgG1 (antibody, V domains shown)
# VH: EVQLEESGTVLARPGASVKMSCKASGYTFTSYWMHWIKQRPGQGLEWIGAIYPGNGDTNYNQKFKDKAKLTAVKSTSSAYMELSSLTNEDSAVYFCTREGIPQLLNTLDVWGQGTSVTVSS
# VL: DILMTQSPSSLSASLGERVSLTCRASQEISGYLSWLQEKPDGTIKRLIYAASTLDSGVPKRFSGSRSGSDYSLTISSLESEDFADYYCQQYLSYPWTFGGGTKLEIK
# B9: AB-4 full-length IgG1 (antibody, V domains shown)
# VH: EVQLEESGTVLARPGASVKMSCKASGYTFTTYWMHWIKQRPGQGLEWIGAIYPGNGDTNYNQKFKDKAKLTAVKSTSSAYMELSSLTNEDSAVYFCTREGIPQLLRTFDYWGQGTSVTVSS
# VL: DILMTQSPSSLSASLGERVSLTCRASQEIGGYLSWLQEKPDGTIKRLIYAASTLDSGVPKRFSGSRSGSDYSLTISSLESEDFADYYCLQYLSYPWTFGGGTKLEIK
# Target: soluble G614 HexaPro spike ectodomain (SARS-CoV-2, UniProt P0DTC2 14-1208)
row,Binder,Kd
1,B1,0.389 nM
2,B2,1.69 nM
3,B3,2.07 nM
4,B4,1.73 nM
5,B5,1.2 nM
6,B6,0.628 nM
7,B7,2.55 nM
8,B8,2.09 nM
9,B9,1.14 nM

# Source: patent US12473560 (FLAGSHIP PIONEERING INNOVATIONS VI, dated 2025)
